According to patent US20240228562A1 (Pieris, published 2024):

T1: recombinant human CTGF protein (R&D Systems, SEQ ID NO: 79) (human, UniProt P29279 27-349)
T1 construct: Bought; also called human CTGF/CNN2; huCTGF
T1 sequence: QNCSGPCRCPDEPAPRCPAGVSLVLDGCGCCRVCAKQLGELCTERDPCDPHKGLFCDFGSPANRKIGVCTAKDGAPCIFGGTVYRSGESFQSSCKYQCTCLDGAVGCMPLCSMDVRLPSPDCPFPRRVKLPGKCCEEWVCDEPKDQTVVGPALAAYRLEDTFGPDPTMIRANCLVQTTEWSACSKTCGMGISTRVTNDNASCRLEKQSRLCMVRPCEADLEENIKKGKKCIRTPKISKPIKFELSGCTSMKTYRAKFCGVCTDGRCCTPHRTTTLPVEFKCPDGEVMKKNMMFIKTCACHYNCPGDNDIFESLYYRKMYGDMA


Biological target: T1, recombinant human CTGF protein (R&D …)
Assay: ELISA, coated human CTGF
Description: Binding of fusion proteins was tested by an ELISA assay. In detail, a 384-well plate suitable for fluorescence measurements (Greiner FLUOTRAC™ 600, black flat bottom, high-binding) was coated with 20 μl of human CTGF (R&D Systems) at a concentration of 1 μg/ml in PBS over night at 4° C. After washing with PBS with 0.05% Tween 20, wells were blocked with 100 μl blocking buffer containing 0.1% Tween 20 and 2% BSA (PBS-T/BSA) for 1 h at room temperature. 20 μl of serially diluted muteins were incubated in PBS-T/BSA for 1 h at room temperature (RT).
The residual supernatants were discarded and 20 μl HRP-labeled anti-NGAL or anti-His-Tag antibody was added at a predetermined optimal concentration in PBS-T/BSA and incubated for 1 h at RT. After washing, 20 μl fluorogenic HRP substrate (QuantaBlu, Thermo) was added to each well, and the reaction was allowed to proceed for 2 to 60 minutes. The fluorescence intensity of every well on the plate was read using a fluorescence microplate reader (Tecan). Curve fitting was performed using GraphPad Prism 7 or 8 software.

EC50 | Binder
1.2 nM | fusion protein of SEQ ID NO: 66 (designed binder) QDSTSDLIPAPPLSKVPLQQNFQDNQFHGKWYVVGLAGNKILRIDKQPAKMFATIYELKEDKSYDVTSVRFEARSCSYTIKTFVPGSQPGEFTAGNIKSAPGQTSTLVRVVSTNYNQHAMVFFKHVSQNRETFVITLYGRTKELTSELKENFIRFSKSLGLPENHIVFPVPIDQCIDGGGGGSGGGGSGGGGSQDSTSDLIPAPPLSKVPLQQNFQDNQFHGKWYVVGRAGNNRLREDKDPPKMWATIYELKEDKSYDVTHVHFMTKKCRYIIDTFVPGSQPGEFTLGAIKSGPGMTSPLVRIVSTNYNQHAMVFFKWVNQNREWFTITLYGRTKELTSELKENFIRFSKSLGLPENHIVFPVPIDQCIDG
1 nM | fusion protein of SEQ ID NO: 67 (designed binder) QDSTSDLIPAPPLSKVPLQQNFQDNQFHGKWYVVGLAGNKILRIDKQPAKMFATIYELKEDKSYDVTSVRFEARSCSYTIKTFVPGSQPGEFTAGNIKSAPGQTSTLVRVVSTNYNQHAMVFFKHVSQNRETFVITLYGRTKELTSELKENFIRFSKSLGLPENHIVFPVPIDQCIDGGGGGSGGGGSGGGGSQDSTSDLIPAPPLSKVPLQQNFQDNQFHGKWYVVGWAGNIKLREDKDPFKMSATIYELKEDKSYDVTEVVFEQKKCHYIIKTFVPGSQPGEFTLGDIKSPPGETSSLVRVVSTNYNQHAMVFFKKVFQNREFFWITLYGRTKELTSELKENFIRFSKSLGLPENHIVFPVPIDQCIDG
0.61 nM | fusion protein of SEQ ID NO: 65 (designed binder) QDSTSDLIPAPPLSKVPLQQNFQDNQFHGKWYVVGRAGNNRLREDKDPPKMWATIYELKEDKSYDVTHVHFMTKKCRYIIDTFVPGSQPGEFTLGAIKSGPGMTSPLVRIVSTNYNQHAMVFFKWVNQNREWFTITLYGRTKELTSELKENFIRFSKSLGLPENHIVFPVPIDQCIDGGGGGSGGGGSGGGGSQDSTSDLIPAPPLSKVPLQQNFQDNQFHGKWYVVGLAGNKILRIDKQPAKMFATIYELKEDKSYDVTSVRFEARSCSYTIKTFVPGSQPGEFTAGNIKSAPGQTSTLVRVVSTNYNQHAMVFFKHVSQNRETFVITLYGRTKELTSELKENFIRFSKSLGLPENHIVFPVPIDQCIDG
